Legend:
[1] = target: the molecule itself; test: non-reducing SDS-PAGE and immunoblot
SEC = target: the molecule itself; test: SEC

B1: peroxiredoxin 2 (Prdx2), rat heart (natural protein, rat (endogenous in heart), UniProt P35704 1-198, looked up)
chain: MASGNAHIGKPAPDFTGTAVVDGAFKEIKLSDYRGKYVVLFFYPLDFTFVCPTEIIAFSDHAEDFRKLGCEVLGVSVDSQFTHLAWINTPRKEGGLGPLNIPLLADVTKSLSQNYGVLKNDEGIAYRGLFIIDAKGVLRQITVNDLPVGRSVDEALRLVQAFQYTDEHGEVCPAGWKPGSDTIKPNVDDSKEYFSKHN
[1]
  stoichiometry N: 2
SEC
  stoichiometry N: 10

B2: peroxiredoxin 1 (Prdx1), rat heart (natural protein, rat (endogenous in heart), UniProt Q63716 1-199, looked up)
chain: MSSGNAKIGHPAPSFKATAVMPDGQFKDISLSDYKGKYVVFFFYPLDFTFVCPTEIIAFSDRAEEFKKLNCQVIGASVDSHFCHLAWINTPKKQGGLGPMNIPLVSDPKRTIAQDYGVLKADEGISFRGLFIIDDKGILRQITINDLPVGRSVDEILRLVQAFQFTDKHGEVCPAGWKPGSDTIKPDVNKSKEYFSKQK
[1]
  stoichiometry N: 2

Reference: publication PMC2494773 (American Journal of Physiology. Heart and Circulatory …, 2008)
